Experimental findings from the supplement of paper PMC5998384 are described below.

Data set [1] has as its system HeLa Kyoto. The data set can be described thus: thermal stability score vs G1/S (z-score of summed log2 fold changes over temperatures); higher = more thermally stable than in G1/S.
In data set [2] the test system is HeLa Kyoto. Put plainly: solubility in G1/S (NP-40 vs SDS abundance) (log2 ratio); higher = more soluble. The conditions noted are these: cell cycle stage: G1/S.
The test system of data set [3] is HeLa Kyoto. The data set can be described thus: solubility change mitosis vs G1/S (difference of NP-40 vs SDS log2 ratios) (log2 ratio difference); higher = more soluble in mitosis.
The mark [4] stands for this setting: cell cycle stage: early G1 (4.5 h after nocodazole release).
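Throughout, for solubility change mitosis vs G1/S (difference of NP-40 vs SDS log2 ratios): synchronized HeLa Kyoto cells (double thymidine block for G1/S, nocodazole release for mitosis), protein amounts in NP-40 versus SDS lysates quantified by mass spectrometry, three biological replicates.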
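Throughout, for solubility in G1/S (NP-40 vs SDS abundance): HeLa Kyoto cells arrested at G1/S by double thymidine block, proteins quantified by TMT10plex mass spectrometry in mild NP-40 versus SDS extracts, three biological replicates.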
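Throughout, for thermal stability score vs G1/S (z-score of summed log2 fold changes over temperatures): synchronized HeLa Kyoto cells, proteins quantified by TMT10plex mass spectrometry, three biological replicates, mitosis taken 0.5 h after nocodazole release, G1/S directly after double thymidine block.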

Chain of DENND4A (chain, as listed by the source): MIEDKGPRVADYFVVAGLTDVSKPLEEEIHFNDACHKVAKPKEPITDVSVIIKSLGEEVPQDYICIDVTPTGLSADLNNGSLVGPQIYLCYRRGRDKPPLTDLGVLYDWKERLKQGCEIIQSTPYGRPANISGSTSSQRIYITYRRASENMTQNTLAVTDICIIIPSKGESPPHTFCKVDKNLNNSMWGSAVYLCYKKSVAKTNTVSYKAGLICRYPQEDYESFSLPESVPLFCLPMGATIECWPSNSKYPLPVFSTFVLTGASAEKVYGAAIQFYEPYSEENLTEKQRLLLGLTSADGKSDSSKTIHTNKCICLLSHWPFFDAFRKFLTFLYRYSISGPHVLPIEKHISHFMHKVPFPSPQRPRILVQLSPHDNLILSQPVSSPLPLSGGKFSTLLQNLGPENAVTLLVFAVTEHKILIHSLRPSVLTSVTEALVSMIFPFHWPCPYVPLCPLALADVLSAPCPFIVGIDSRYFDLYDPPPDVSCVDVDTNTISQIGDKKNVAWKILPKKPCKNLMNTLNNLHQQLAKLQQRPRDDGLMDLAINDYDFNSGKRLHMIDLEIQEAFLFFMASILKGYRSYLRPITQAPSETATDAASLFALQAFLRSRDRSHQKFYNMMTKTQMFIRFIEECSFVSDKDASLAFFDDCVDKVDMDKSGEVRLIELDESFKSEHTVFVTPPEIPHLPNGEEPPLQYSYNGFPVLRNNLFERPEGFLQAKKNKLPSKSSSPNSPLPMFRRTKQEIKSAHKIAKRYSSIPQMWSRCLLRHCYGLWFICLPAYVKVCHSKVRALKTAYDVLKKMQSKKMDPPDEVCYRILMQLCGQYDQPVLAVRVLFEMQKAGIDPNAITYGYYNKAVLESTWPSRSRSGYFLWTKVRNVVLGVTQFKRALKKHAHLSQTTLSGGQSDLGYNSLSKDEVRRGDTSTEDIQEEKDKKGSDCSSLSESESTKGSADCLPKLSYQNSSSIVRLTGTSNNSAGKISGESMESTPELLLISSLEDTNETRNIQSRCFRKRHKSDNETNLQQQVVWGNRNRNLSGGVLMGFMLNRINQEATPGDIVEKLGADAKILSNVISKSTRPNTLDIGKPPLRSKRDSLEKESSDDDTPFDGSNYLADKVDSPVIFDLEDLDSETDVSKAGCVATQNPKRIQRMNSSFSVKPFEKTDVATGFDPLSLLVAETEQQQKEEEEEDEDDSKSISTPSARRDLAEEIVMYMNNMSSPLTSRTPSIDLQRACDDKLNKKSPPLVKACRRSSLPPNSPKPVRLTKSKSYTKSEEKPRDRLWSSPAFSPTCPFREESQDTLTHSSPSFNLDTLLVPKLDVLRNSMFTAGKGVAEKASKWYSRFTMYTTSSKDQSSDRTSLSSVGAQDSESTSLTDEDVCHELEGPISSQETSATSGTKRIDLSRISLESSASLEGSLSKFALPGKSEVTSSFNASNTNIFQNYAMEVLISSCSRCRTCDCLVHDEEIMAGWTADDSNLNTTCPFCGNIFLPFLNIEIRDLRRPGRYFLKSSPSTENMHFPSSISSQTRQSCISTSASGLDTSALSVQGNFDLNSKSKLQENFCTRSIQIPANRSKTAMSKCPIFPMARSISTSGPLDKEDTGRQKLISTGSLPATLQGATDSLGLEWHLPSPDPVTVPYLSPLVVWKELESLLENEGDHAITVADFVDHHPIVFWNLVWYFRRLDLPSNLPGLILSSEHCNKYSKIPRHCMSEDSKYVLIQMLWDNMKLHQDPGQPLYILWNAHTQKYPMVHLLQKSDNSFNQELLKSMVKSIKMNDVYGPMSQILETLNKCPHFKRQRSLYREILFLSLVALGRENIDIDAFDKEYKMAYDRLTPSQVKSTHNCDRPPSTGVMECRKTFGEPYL
Chain of DGKA (chain, as listed by the source): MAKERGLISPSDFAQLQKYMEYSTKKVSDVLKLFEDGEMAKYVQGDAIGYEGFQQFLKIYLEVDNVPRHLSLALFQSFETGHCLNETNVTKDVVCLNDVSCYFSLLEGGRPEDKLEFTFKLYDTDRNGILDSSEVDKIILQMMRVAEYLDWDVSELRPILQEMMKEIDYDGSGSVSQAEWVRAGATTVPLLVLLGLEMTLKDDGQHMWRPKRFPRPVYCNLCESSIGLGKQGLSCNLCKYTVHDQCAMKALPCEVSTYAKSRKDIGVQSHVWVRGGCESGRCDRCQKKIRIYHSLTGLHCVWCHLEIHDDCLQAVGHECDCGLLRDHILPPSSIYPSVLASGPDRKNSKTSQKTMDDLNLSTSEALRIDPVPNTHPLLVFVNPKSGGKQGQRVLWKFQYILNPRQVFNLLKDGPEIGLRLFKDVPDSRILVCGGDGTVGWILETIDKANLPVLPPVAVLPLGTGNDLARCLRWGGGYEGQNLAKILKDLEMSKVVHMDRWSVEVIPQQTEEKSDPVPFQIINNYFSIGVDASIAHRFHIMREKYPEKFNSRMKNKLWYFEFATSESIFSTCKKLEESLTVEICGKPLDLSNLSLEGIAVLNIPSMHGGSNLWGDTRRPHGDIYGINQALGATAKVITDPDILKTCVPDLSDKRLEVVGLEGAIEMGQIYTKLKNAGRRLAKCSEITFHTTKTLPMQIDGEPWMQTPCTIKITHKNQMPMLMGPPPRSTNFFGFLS

Turning to DENND4A, the results for the thermal stability score in data set [1] (setting [4]) and in data set [1] (cell cycle stage: mitosis) were -0.12 and -0.608, respectively. In addition, in data set [2], the “solubility in G1/S (log2)” value was 0.0407. For the same substance, the “solubility change mitosis (log2)” value in data set [3] is -0.246.
In the same order, the values of DGKA are 0.0904, 0.484, -0.0832 and -0.157.
The matching figures for ESPL1: 0.555, 2.16, -0.00542 and -0.204.
In the same order, the values of LAMA3 are -0.604, -0.145, -0.331 and 0.0773.
Turning to “MAAAAVDSAMEVVPALAEEAAPEVAGLSCLVNLPGEVLEYILCCGSLTAADIGRVSSTCRRLRELCQSSGKVWKEQFRVRWPSLMKHYSPTDYVNWLEEYKVRQKAGLEARKIVASFSKRFFSEHVPCNGFSDIENLEGPEIFFEDELVCILNMEGRKALTWKYYAKKILYYLRQQKILNNLKAFLQQPDDYESYLEGAVYIDQYCNPLSDISLKDIQAQIDSIVELVCKTLRGINSRHPSLAFKAGESSMIMEIELQSQVLDAMNYVLYDQLKFKGNRMDYYNALNLYMHQVLIRRTGIPISMSLLYLTIARQLGVPLEPVNFPSHFLLRWCQGAEGATLDIFDYIYIDAFGKGKQLTVKECEYLIGQHVTAALYGVVNVKKVLQRMVGNLLSLGKREGIDQSYQLLRDSLDLYLAMYPDQVQLLLLQARLYFHLGIWPEKSFCLVLKVLDILQHIQTLDPGQHGAVGYLVQHTLEHIERKKEEVGVEVKLRSDEKHRDVCYSIGLIMKHKRYGYNCVIYGWDPTCMMGHEWIRNMNVHSLPHGHHQPFYNVLVEDGSCRYAAQENLEYNVEPQEISHPDVGRYFSEFTGTHYIPNAELEIRYPEDLEFVYETVQNIYSAKKENIDE [FBXO21]”, the thermal stability score was 0.858 in data set [1] (setting [4]) and 1.12 in data set [1] (cell cycle stage: mitosis). Further, the “solubility in G1/S (log2)” value in data set [2] is -0.126. Moreover, the “solubility change mitosis (log2)” value in data set [3] was -0.0785.
As to “MAALTIATGTGNWFSALALGVTLLKCLLIPTYHSTDFEVHRNWLAITHSLPISQWYYEATSEWTLDYPPFFAWFEYILSHVAKYFDQEMLNVHNLNYSSSRTLLFQRFSVIFMDVLFVYAVRECCKCIDGKKVGKELTEKPKFILSVLLLWNFGLLIVDHIHFQYNGFLFGLMLLSIARLFQKRHMEGAFLFAVLLHFKHIYLYVAPAYGVYLLRSYCFTANKPDGSIRWKSFSFVRVISLGLVVFLVSALSLGPFLALNQLPQVFSRLFPFKRGLCHAYWAPNFWALYNALDKVLSVIGLKLKFLDPNNIPKASMTSGLVQQFQHTVLPSVTPLATLICTLIAILPSIFCLWFKPQGPRGFLRCLTLCALSSFMFGWHVHEKAILLAILPMSLLSVGKAGDASIFLILTTTGHYSLFPLLFTAPELPIKILLMLLFTIYSISSLKTLFRKEKPLFNWMETFYLLGLGPLEVCCEFVFPFTSWKVKYPFIPLLLTSVYCAVGITYAWFKLYVSVLIDSAIGKTKKQ [ALG8]”, the thermal stability score in data set [1] (setting [4]) was -0.785; in data set [1] (cell cycle stage: mitosis), -1.28. In addition, the “solubility in G1/S (log2)” value in data set [2] is -0.668. Also, the “solubility change mitosis (log2)” value in data set [3] is -0.131.
On to “MAASGVEKSSKKKTEKKLAAREEAKLLAGFMGVMNNMRKQKTLCDVILMVQERKIPAHRVVLAAASHFFNLMFTTNMLESKSFEVELKDAEPDIIEQLVEFAYTARISVNSNNVQSLLDAANQYQIEPVKKMCVDFLKEQVDASNCLGISVLAECLDCPELKATADDFIHQHFTEVYKTDEFLQLDVKRVTHLLNQDTLTVRAEDQVYDAAVRWLKYDEPNRQPFMVDILAKVRFPLISKNFLSKTVQAEPLIQDNPECLKMVISGMRYHLLSPEDREELVDGTRPRRKKHDYRIALFGGSQPQSCRYFNPKDYSWTDIRCPFEKRRDAACVFWDNVVYILGGSQLFPIKRMDCYNVVKDSWYSKLGPPTPRDSLAACAAEGKIYTSGGSEVGNSALYLFECYDTRTESWHTKPSMLTQRCSHGMVEANGLIYVCGGSLGNNVSGRVLNSCEVYDPATETWTELCPMIEARKNHGLVFVKDKIFAVGGQNGLGGLDNVEYYDIKLNEWKMVSPMPWKGVTVKCAAVGSIVYVLAGFQGVGRLGHILEYNTETDKWVANSKVRAFPVTSCLICVVDTCGANEETLET [KLHL7]”, for which the figures for the thermal stability score in data set [1] (setting [4]) and in data set [1] (cell cycle stage: mitosis) were 0.201 and -0.116, respectively. In addition, in data set [2], the “solubility in G1/S (log2)” value was -0.622. The “solubility change mitosis (log2)” value in data set [3] turned out to be 0.322.
In the same order, the values of “MAASKTQGAVARMQEDRDGSCSTVGGVGYGDSKDCILEPLSLPESPGGTTTLEGSPSVPCIFCEEHFPVAEQDKLLKHMIIEHKIVIADVKLVADFQRYILYWRKRFTEQPITDFCSVIRINSTAPFEEQENYFLLCDVLPEDRILREELQKQRLREILEQQQQERNDTNFHGVCMFCNEEFLGNRSVILNHMAREHAFNIGLPDNIVNCNEFLCTLQKKLDNLQCLYCEKTFRDKNTLKDHMRKKQHRKINPKNREYDRFYVINYLELGKSWEEVQLEDDRELLDHQEDDWSDWEEHPASAVCLFCEKQAETIEKLYVHMEDAHEFDLLKIKSELGLNFYQQVKLVNFIRRQVHQCRCYGCHVKFKSKADLRTHMEETKHTSLLPDRKTWDQLEYYFPTYENDTLLCTLSDSESDLTAQEQNENVPIISEDTSKLYALKQSSILNQLLL [ZNF277]” are 0.293, 1.38, -0.685 and 0.173.
In the same order, the values of “MAATAVAAAVAGTESAQGPPGPAASLELWLNKATDPSMSEQDWSAIQNFCEQVNTDPNGPTHAPWLLAHKIQSPQEKEALYALTVLEMCMNHCGEKFHSEVAKFRFLNELIKVLSPKYLGSWATGKVKGRVIEILFSWTVWFPEDIKIRDAYQMLKKQGIIKQDPKLPVDKILPPPSPWPKSSIFDADEEKSKLLTRLLKSNHPEDLQAANRLIKNLVKEEQEKSEKVSKRVSAVEEVRSHVKVLQEMLSMYRRPGQAPPDQEALQVVYERCEKLRPTLFRLASDTTDDDDALAEILQANDLLTQGVLLYKQVMEGRVTFGNRVTSSLGDIPVSRVFQNPAGCMKTCPLIDLEVDNGPAQMGTVVPSLLHQDLAALGISDAPVTGMVSGQNCCEEKRNPSSSTLPGGGVQNPSADRNLLDLLSAQPAPCPLNYVSQKSVPKEVPPGTKSSPGWSWEAGPLAPSPSSQNTPLAQVFVPLESVKPSSLPPLIVYDRNGFRILLHFSQTGAPGHPEVQVLLLTMMSTAPQPVWDIMFQVAVPKSMRVKLQPASSSKLPAFSPLMPPAVISQMLLLDNPHKEPIRLRYKLTFNQGGQPFSEVGEVKDFPDLAVLGAA [GGA2]” are 0.693, 1.05, 0.448 and -0.32.
